Results from the supplement of paper PMC7877785.
± gives the uncertainty stated by the source.

Assay: self-splicing fitness, log relative to wild type (ln ratio); higher = more splicing; Tetrahymena group I intron in knt gene, E. coli kanamycin selection, DiMSum; sequences stand for … in CUCUCU…GGAGGGAAAAGUUAUCAGGCAUGCACCUGGUAGCUAGUCUUUAAACCAAUAGAUUGCAUCGGUUUAAAAGGCAAGACCGUCAAAUUGCGGGAAAGGGGUCAACAGCCGUUCAGUACCAAGUCUCAGGGGAAACUUUGAGAUGGCCUUGCAAAGGGUAUGGUAAUAAGCUGACGGACAUGGUCCUAACCACGCAGCCAAGUCCUAAGUCAACAGAUCUUCUGUUGAUAUGGAUGCAGUUCACAGACUAAAUGUCGGUCGGGGAAGAUGUAUUCUUCUCAUAAGAUAUAGUCGGACCUCUCCUUAAUGGGAGCUAGCGGAUGAAGUGAUGCAACACUGGAGCCGCUGGGAACUAAUUUGUAUGCGAAAGUAUAUUGAUUAGUUUUGGAGUACUCGUGGUCG
Method in brief: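 DiMSum derived fitness as the error-weighted combination of fold changes across replicates, kanamycin versus no kanamycin, normalised to wild type. E. coli BL21(DE3) held the library, which randomised all eight P1ex-region intron nucleotides within the knt kanamycin-resistance gene on pET-22b(+). Six replicate transformations grew overnight at 37°C or 30°C on LB agar with or without 25 μg/mL kanamycin, also containing 100 μg/mL carbenicillin, 50 μM IPTG and 0.2% rhamnose, and pooled colonies were amplicon-sequenced on an Illumina HiSeq 2500.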

Sequence	self-splicing fitness (ln) (30 °C)	self-splicing fitness (ln) (37 °C)
CGAGAGCAAUAUUACGGAGG	-2.7 ± 0.49	–
GUAGAGCAAUAUUACGCACC	-2.47 ± 0.28	-0.709 ± 0.2
GGAUAGCAAUAUUACGUCAG	-2.87 ± 0.12	-2.12 ± 0.23
GUAGAGCAAUAUUACGCUUG	-0.837 ± 0.12	-0.536 ± 0.19
CGUAAGCAAUAUUACGCCGU	-3.89 ± 0.26	-2.65 ± 0.21
CGUUAGCAAUAUUACGGCGU	-3.75 ± 0.31	-0.556 ± 0.19
AGCUAGCAAUAUUACGACAU	-0.509 ± 0.012	-0.147 ± 0.032
GUACAGCAAUAUUACGCCGG	-3.87 ± 0.39	-2.45 ± 0.24
GAUGAGCAAUAUUACGCGCA	-1.91 ± 0.21	-1.58 ± 0.19
GUCUAGCAAUAUUACGGUGC	0.0594 ± 0.14	-0.142 ± 0.15
GUCCAGCAAUAUUACGGCUU	-0.269 ± 0.068	0.16 ± 0.087
AUUUAGCAAUAUUACGACGC	-1.8 ± 0.19	-0.352 ± 0.21
GCCUAGCAAUAUUACGGGAC	-2.4 ± 0.13	-0.0283 ± 0.1
UAUCAGCAAUAUUACGGGCU	-2.72 ± 0.21	-2.23 ± 0.3
AACAAGCAAUAUUACGUUCC	-3.85 ± 0.36	-0.835 ± 0.2
UCUGAGCAAUAUUACGCGCA	-2.16 ± 0.3	–
AACGAGCAAUAUUACGUGCG	-2.23 ± 0.11	-1.92 ± 0.15
UGACAGCAAUAUUACGUCGU	-1.56 ± 0.15	-3.25 ± 0.24
GGCUAGCAAUAUUACGUACU	-0.354 ± 0.077	0.312 ± 0.11
GAUCAGCAAUAUUACGGAGG	-3.86 ± 0.24	-1.82 ± 0.15
GUCAAGCAAUAUUACGGGAG	-3.23 ± 0.1	-1.07 ± 0.081
UCCCAGCAAUAUUACGCAAG	-3.45 ± 0.16	-2.69 ± 0.21
UUCAAGCAAUAUUACGUCCU	-1.99 ± 0.12	-1.04 ± 0.14
CUUGAGCAAUAUUACGGCUU	-3.95 ± 0.22	-2.41 ± 0.24
GGUCAGCAAUAUUACGGCGU	0.348 ± 0.11	0.0889 ± 0.12

Sequence	self-splicing fitness (ln) (30 °C)	self-splicing fitness (ln) (37 °C)
AGUCAGCAAUAUUACGUUUA	-2.23 ± 0.11	-1.36 ± 0.099
CCACAGCAAUAUUACGUGGA	-3.7 ± 0.16	-3.16 ± 0.16
GAGCAGCAAUAUUACGGGUG	-4.47 ± 0.22	-2.17 ± 0.15
AGUAAGCAAUAUUACGGAAU	-2.75 ± 0.14	-1.5 ± 0.15
AUAAAGCAAUAUUACGCUGC	-3.15 ± 0.23	-2.59 ± 0.33
UGGAAGCAAUAUUACGAAGC	-3.64 ± 0.35	-2.35 ± 0.36
CCCCAGCAAUAUUACGCUUC	-4.6 ± 0.32	-2.39 ± 0.27
CCGUAGCAAUAUUACGUUCC	-3.11 ± 0.47	–
AUGCAGCAAUAUUACGCAUA	–	-2.06 ± 0.38
CUCCAGCAAUAUUACGUGCU	-3.06 ± 0.11	-2.58 ± 0.14
AUGGAGCAAUAUUACGCCGG	-2.78 ± 0.46	–
GUCAAGCAAUAUUACGCCUA	-0.294 ± 0.12	0.0798 ± 0.093
AAAUAGCAAUAUUACGAUCU	-0.0304 ± 0.11	0.867 ± 0.13
AAGCAGCAAUAUUACGUCAU	-3.1 ± 0.14	-1.76 ± 0.14
GUGUAGCAAUAUUACGCUUC	-2.71 ± 0.28	-3.09 ± 0.47
ACCCAGCAAUAUUACGCAGC	-1.41 ± 0.068	-0.445 ± 0.068
UGUUAGCAAUAUUACGACAG	-1.39 ± 0.17	0.0704 ± 0.2
UUAAAGCAAUAUUACGACUG	-0.0352 ± 0.08	0.184 ± 0.12
CGUGAGCAAUAUUACGAUGG	-0.492 ± 0.1	-0.139 ± 0.13
CAACAGCAAUAUUACGGGGA	-2.24 ± 0.093	-2.14 ± 0.11
CCGGAGCAAUAUUACGGUAU	-4.05 ± 0.2	-3.34 ± 0.22
AGAUAGCAAUAUUACGGGGA	-3.46 ± 0.31	-3.05 ± 0.35
AAAUAGCAAUAUUACGGGCG	-1.29 ± 0.08	-0.403 ± 0.096
CCGCAGCAAUAUUACGAUGC	-4.08 ± 0.28	-2.88 ± 0.23
